# B1: IFNβ-NAg: Fusion protein: rat IFNβ, enterokinase linker (GDDDDKG), encephalitogenic 73-87 peptide of guinea pig MBP, C-terminal 6-histidine tag (protein)
# chain: IDYKQLQFRQSTSIRTCQKLLRQLNGRLNLSYRTDFKIPMEVMHPSQMEKSYTAFAIQVMLQNVFLVFRSNFSSTGWNETIVESLLDELHQQTELLEIILKEKQEERLTWVTSTTTLGLKSYYWRVQRYLKDKKYNSYAWMVVRAEVFRNFSIILRLNRNFQNGDDDDKGPQKSQRSQDENPVVHHHHHH
# How the values were obtained:
# CTLL T cells = test: Anti-proliferative/killing activity on CTLL T cells; format: cell-based, mouse; conditions: murine CTLL T cells; baculovirus supernatants
# Protocol: (§1) FIG. 1. The IFNβ-NAg his-tagged fusion protein was biologically active and was purified on nickel resins. (A) To assess whether IFNβ-NAg induced class I MHC expression, thymocytes (5×10^6/ml in complete RPMI) were cultured with or without IFNβ-NAg for 2 days and then were stained with B5 (anti-MHC-I), OX18 (anti-MHC-I), R73 (anti-TCRβ), or OX81 (anti-IL4; isotype control) and were analyzed by flow cytometry. (B) To assess IFNβ-mediated anti-proliferative activity, supernatants from two independently derived IFNβ-NAg expression systems as well as supernatants from several control expression systems were added at designated titrations (x-axis) to IL-2 stimulated cultures of BN-GP T cells. (C) To assess the specificity of anti-proliferative activity, baculovirus supernatants containing IFNβ-NAg were added at designated titrations to cultures of rat (R1T, BN-GP, RsL.11T, RsL.11, or Conal.8D9) or mouse (CTLL) T cells. Proliferative assays (B & C) were pulsed with [^3H]thymidine on the second day of a 3-day culture. (D) Shown is a representative SDS-PAGE analysis of purified IFNβ-NAg. […]
# (§2) Cultures were pulsed with 1 uCi of [^3H]thymidine (6.7 Ci/mmol, New England Nuclear) during the last day of a 3 or 4 day culture. […] [^3H]thymidine incorporation into DNA was measured by use of a Wallac 1450 Microbeta Plus liquid scintillation counter. […]
# EAE in SJL mice = test: Treatment of passively induced EAE and second active challenge in SJL mice; format: in vivo; conditions: murine IFNβ/PLP139-151 fusion protein; 2 nanomoles s.c. days 12, 14, 16
# Protocol: FIG. 8. […] Shown are the time-courses of EAE (A) and the percent maximal weight (B) from example 4.
# On day 0, mice were passively challenged with activated, encephalitogenic T cells specific for the PLP139-151 epitope. […] On day 12, three groups of mice were matched for clinical severity. On days 12, 14, and 16, mice were treated with the IFNβ-NAg fusion protein (2 nanomoles), a synthetic PLP139-151 peptide (2 nanomoles), or saline. Treatments were given by subcutaneous injections of proteins or peptides in saline. On day 24, mice were actively challenged to induce a second bout of EAE by challenge with 200 micrograms of PLP139-151 in Complete Freund's Adjuvant. […] Furthermore, the fusion protein promoted a tolerogenic effect that ameliorated the subsequent bout of EAE (FIG. 8A). These observations support the concept that the IFNβ-NAg fusion protein may have clinical activities conducive for the treatment of autoimmune demyelinating disease of the central nervous system.
# RsL.11 clone = test: Anti-proliferative/killing activity on RsL.11 T cells; format: cell-based, rat; conditions: baculovirus supernatants
# Protocol: as §1, §2
# RsL.11T = test: Anti-proliferative/killing activity on RsL.11T T cells; format: cell-based, rat; conditions: baculovirus supernatants
# Protocol: as §1, §2
# thymocytes = test: Induction of class I MHC expression on thymocytes (flow cytometry); format: cell-based; conditions: 2 days of culture
# Protocol: FIG. 1. The IFNβ-NAg his-tagged fusion protein was biologically active and was purified on nickel resins. (A) To assess whether IFNβ-NAg induced class I MHC expression, thymocytes (5×10^6/ml in complete RPMI) were cultured with or without IFNβ-NAg for 2 days and then were stained with B5 (anti-MHC-I), OX18 (anti-MHC-I), R73 (anti-TCRβ), or OX81 (anti-IL4; isotype control) and were analyzed by flow cytometry. (B) To assess IFNβ-mediated anti-proliferative activity, supernatants from two independently derived IFNβ-NAg expression systems as well as supernatants from several control expression systems were added at designated titrations (x-axis) to IL-2 stimulated cultures of BN-GP T cells. (C) To assess the specificity of anti-proliferative activity, baculovirus supernatants containing IFNβ-NAg were added at designated titrations to cultures of rat (R1T, BN-GP, RsL.11T, RsL.11, or Conal.8D9) or mouse (CTLL) T cells. Proliferative assays (B & C) were pulsed with [^3H]thymidine on the second day of a 3-day culture. (D) Shown is a representative SDS-PAGE analysis of purified IFNβ-NAg.
# T cells were incubated with a 1/20 titration of a concentrated supernatant containing the designated mAb for 45 minutes at 4° C. […] Data were acquired with a Becton Dickinson FACScan flow cytometer and were analyzed with the CELLQuest software program. […]
# R1T = test: Anti-proliferative/killing activity on R1T T cells; format: cell-based, rat; conditions: baculovirus supernatants
# Protocol: as §1, §2
# Conal.8D9 = test: Anti-proliferative/killing activity on Conal.8D9 T cells; format: cell-based, rat; conditions: baculovirus supernatants
# Protocol: as §1, §2
molecule,measurement,setting,value
B1,cell death of T cell line,CTLL T cells,did not kill
same,EAE-associated cachexia (percent maximal weight),EAE in SJL mice,acutely reversed EAE-associated cachexia
same,cell death of T cell line,RsL.11 clone,directly caused the death
same,cell death of T cell line,RsL.11T,directly caused the death
same,expression of MHC-I on immature thymocytes,thymocytes; 1% titration of baculovirus expression supernatant,induced the expression of MHC-I
same,TCRβ expression,thymocytes; baculovirus expression supernatant,did not affect TCRβ expression
same,cell death of T cell line,R1T,did not kill
same,cell death of T cell line,Conal.8D9,directly caused the death

# From patent US10363306B2, “Cytokines and neuroantigens for treatment of immune disorders” (East Carolina University, priority 2009, dated 2019)
